Assay results: the supplement of paper PMC10567573

B1: COX4I1 (parent)
chain: FDKEWVAKQTKRMLDMKVNPIQGL

Variants of: B1
Assay: protein stability index of a GFP-peptide fusion (GPS, HEK-293T) (PSI 1-6); higher = more stable
Conditions: c terminus: a fixed tail appended
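Further: lentivirally expressed fusions sorted by FACS into six bins by GFP to DsRed ratio, PSI derived from sequencing read proportions per bin multiplied by bin number.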

Row | Variant | protein stability index
1 | M13A | 1.13
2 | M13R | 1.64
3 | M13I | 2.34
4 | M13Q | 2.99
5 | M13D | 1.59
6 | M13N | 2.23
7 | M13S | 2.4
8 | M13K | 1.88
9 | M13Y | 1.63
10 | M13P | 2.35
11 | M13C | 2.17
12 | M13F | 2.12
13 | M13L | 2.36
14 | F1H | 3.13
15 | F1I | 3.11
16 | F1D | 4.38
17 | F1C | 2.62
18 | F1A | 3.42
19 | F1W | 2.17
20 | F1T | 3.71
21 | F1G | 2.92
22 | F1Y | 1.71
23 | F1Q | 3.31
24 | F1L | 3.57

Row | Variant | protein stability index
25 | F1R | 2.42
26 | F1P | 3.44
27 | F1E | 3.19
28 | F1M | 3.23
29 | I21K | 2.06
30 | I21Y | 1.75
31 | I21A | 1.54
32 | I21V | 1.89
33 | I21R | 1.61
34 | I21P | 1.63
35 | I21H | 2.19
36 | I21W | 2.17
37 | I21D | 1.93
38 | I21Q | 1.78
39 | I21T | 1.83
40 | I21S | 1.32
41 | I21F | 1.46
42 | I21L | 1.64
43 | I21N | 2.21
44 | I21E | 1.66
45 | I21C | 2.6
46 | D15V | 1.33
47 | D15S | 1.58
48 | D15G | 1.75

Row | Variant | protein stability index
49 | D15A | 1.62
50 | D15Q | 1.6
51 | D15Y | 2.36
52 | D15E | 1.68
53 | D15L | 1.64
54 | D15W | 2.07
55 | D15H | 1.88
56 | K17Y | 2.14
57 | K17Q | 1.41
58 | K17V | 2.03
59 | K17R | 1.95
60 | K17C | 2.08
61 | K17T | 1.83
62 | K17S | 1.55
63 | K17F | 2.16
64 | K17L | 2.57
65 | K17H | 1.44
66 | K17N | 1.88
67 | K17M | 1.58
68 | K17W | 2.4
69 | K17P | 2.24
70 | K17D | 2.49
71 | K17E | 1.71
72 | A7F | 1.56

Row | Variant | protein stability index
73 | A7L | 1.56
74 | A7D | 2.32
75 | A7I | 1.68
76 | A7R | 2.45
77 | A7N | 1.65
78 | A7W | 1.77
79 | A7G | 2.28
80 | A7H | 1.74
81 | A7T | 1.76
82 | A7E | 1.77
83 | A7K | 2.29
84 | A7C | 1.27
85 | E4S | 1.43
86 | E4H | 2.35
87 | E4D | 1.9
88 | E4V | 2.42
89 | E4L | 1.88
90 | E4T | 2.34
91 | E4M | 1.26
92 | E4Y | 1.89
93 | E4G | 1.43
94 | E4K | 1.82
95 | E4C | 1.62
96 | E4A | 2.41

Row | Variant | protein stability index
97 | V6L | 2.37
98 | V6P | 1.86
99 | V6A | 3.39
100 | V6G | 2.31
101 | V6D | 2.78
102 | V6E | 3.33
103 | V6C | 1.53
104 | V6K | 2.28
105 | V6M | 1.93
106 | V6F | 1.55
107 | V6Y | 1.6
108 | V6T | 1.93
109 | V6H | 2.06
110 | V6I | 1.35
111 | V6S | 1.96
112 | V6R | 2.1
113 | L14T | 1.79
114 | L14A | 2.35
115 | L14C | 1.38
116 | L14H | 1.65
117 | L14N | 1.56
118 | L14Y | 2.42
119 | L14F | 2.88
120 | L14I | 2.1

Row | Variant | protein stability index
121 | L14K | 2.12
122 | L14D | 2.06
123 | K3S | 2.19
124 | K3Q | 2.85
125 | K3A | 2.17
126 | K3T | 2.1
127 | K3P | 1.75
128 | K3Y | 2.13
129 | K3L | 2.06
130 | K3G | 1.91
131 | K3W | 1.29
132 | K3N | 2.06
133 | K3M | 1.64
134 | K3V | 1.68
135 | K3E | 2.83
136 | K3F | 1.87
137 | K3C | 2.12
138 | K8M | 1.88
139 | K8H | 1.77
140 | K8W | 3.04
141 | K8C | 2.68
142 | K8L | 2.31
143 | K8A | 1.06
144 | K8D | 2.29

Row | Variant | protein stability index
145 | K8N | 1.38
146 | K8F | 1.99
147 | K8E | 2.35
148 | K8R | 2.42
149 | K8Q | 1.18
150 | K8P | 2.33
151 | Q9S | 2.46
152 | Q9R | 1.87
153 | Q9C | 3.23
154 | Q9T | 2.87
155 | Q9K | 2.62
156 | Q9N | 1.42
157 | Q9H | 1.77
158 | Q9F | 1.54
159 | Q9A | 3.55
160 | Q9I | 1.6
161 | Q9G | 2.65
162 | Q9W | 1.8
163 | K11W | 1.52
164 | K11H | 1.7
165 | K11E | 1.86
166 | K11N | 1.54
167 | K11Q | 1.79
168 | K11Y | 3.38

Row | Variant | protein stability index
169 | K11I | 1.8
170 | K11L | 1.61
171 | K11R | 1.92
172 | K11G | 1.62
173 | K11T | 1.92
174 | R12Y | 1.56
175 | R12K | 1.81
176 | R12M | 1.6
177 | R12D | 1.88
178 | R12N | 1.36
179 | R12E | 2.59
180 | R12Q | 2.84
181 | R12C | 1.43
182 | R12W | 1.65
183 | R12T | 1.54
184 | R12L | 3.17
185 | R12H | 1.97
186 | R12I | 1.96
187 | R12G | 1.35
188 | R12V | 2.27
189 | R12S | 3.04
190 | R12A | 1.88
191 | L24M | 1.74
192 | L24V | 1.91

Row | Variant | protein stability index
193 | L24Q | 2.45
194 | L24K | 1.03
195 | L24T | 1.35
196 | L24S | 2.31
197 | L24F | 1.72
198 | L24I | 2.3
199 | L24C | 2.19
200 | L24D | 1.84
201 | L24E | 3.09
202 | L24W | 1.73
203 | L24H | 2.55
204 | L24N | 2.28
205 | L24R | 2.09
206 | P20F | 1.71
207 | P20I | 1.56
208 | P20E | 1.59
209 | P20N | 1.47
210 | P20V | 1.73
211 | P20A | 1.61
212 | P20G | 2.17
213 | P20Q | 1.54
214 | P20D | 1.63
215 | P20M | 2.08
216 | P20S | 1.55

Row | Variant | protein stability index
217 | P20Y | 2.05
218 | P20C | 1.73
219 | P20H | 1.78
220 | P20L | 1.63
221 | W5H | 2.84
222 | W5I | 3.44
223 | W5M | 3.52
224 | W5A | 3.96
225 | W5R | 3.98
226 | W5F | 2.8
227 | W5K | 3.54
228 | W5Q | 3.85
229 | W5D | 4.22
230 | W5Y | 3.22
231 | W5S | 3.61
232 | W5C | 3.78
233 | Q22S | 2.23
234 | Q22M | 2.69
235 | Q22C | 1.29
236 | Q22D | 2.31
237 | Q22E | 1.71
238 | Q22N | 1.77
239 | Q22F | 1.73
240 | Q22K | 1.92

Row | Variant | protein stability index
241 | Q22A | 1.93
242 | Q22T | 1.91
243 | Q22I | 2.79
244 | Q22G | 1.63
245 | Q22H | 1.93
246 | Q22L | 2.08
247 | Q22W | 1.68
248 | Q22Y | 2.13
249 | D2C | 4.02
250 | D2V | 1.26
251 | D2E | 1.89
252 | D2I | 2.45
253 | D2W | 1.52
254 | D2R | 1.27
255 | D2A | 2.65
256 | D2P | 2.51
257 | D2G | 1.55
258 | D2T | 1.35
259 | N19F | 1.77
260 | N19M | 1.97
261 | N19L | 1.26
262 | N19C | 2.23
263 | N19T | 1.16
264 | N19V | 2.22

Row | Variant | protein stability index
265 | N19I | 1.76
266 | N19Y | 2.55
267 | N19H | 1.7
268 | N19G | 1.94
269 | N19A | 1.75
270 | M16S | 1.88
271 | M16T | 1.79
272 | M16D | 1.97
273 | M16P | 2.19
274 | M16H | 1.42
275 | M16V | 1.71
276 | M16A | 1.48
277 | M16L | 2
278 | M16C | 1.65
279 | M16N | 1.67
280 | M16E | 1.52
281 | M16W | 2.02
282 | M16Q | 2.4
283 | M16G | 2.13
284 | M16Y | 1.75
285 | M16I | 2.1
286 | V18S | 1.81
287 | V18A | 1.79
288 | V18T | 2.24

Row | Variant | protein stability index
289 | V18D | 1.53
290 | V18E | 1.95
291 | V18R | 2.19
292 | V18G | 2
293 | V18W | 1.99
294 | V18P | 2.13
295 | V18M | 1.86
296 | V18N | 1.86
297 | V18K | 1.19
298 | V18L | 1.72
299 | V18I | 1.65
300 | V18Y | 2.87
301 | V18Q | 2.22
302 | V18H | 1.94
303 | T10C | 1.7
304 | T10K | 1.78
305 | T10A | 1.41
306 | T10I | 2.82
307 | T10P | 2
308 | T10H | 1.69
309 | T10D | 1.82
310 | T10R | 2.35
311 | T10M | 1.91
312 | T10V | 1.49

Row | Variant | protein stability index
313 | T10F | 1.82
314 | T10Y | 1.6
315 | T10N | 1.73
316 | T10G | 2.67
317 | T10Q | 1.84
318 | T10L | 1.24
319 | T10E | 2.21
320 | G23T | 1.77
321 | G23W | 1.88
322 | G23H | 1.4
323 | G23A | 1.43
324 | G23I | 1.81
325 | G23P | 1.39
326 | G23D | 1.9
327 | G23S | 1.7
328 | G23C | 3.51
329 | G23K | 2.02
330 | G23Y | 1.92
331 | G23R | 1.48
332 | G23L | 1.35
333 | G23F | 2.36
334 | G23Q | 2.02
